Measured values: US11472840B2, “Acetylcholine receptor-binding peptide” (AMICOGEN, INC., priority 2017, dated 2022)

How the values were obtained:
acetylcholine receptor = acetylcholine receptor (Homo sapiens, UniProt P02708); assay: Surface plasmon resonance (SPR) affinity measurement on a biosensor chip (Biacore 3000); settings: running buffer 20 mM Tris pH 7.4, peptide 0.1 to 0.5 μM, higher binding than Synake (FIG. 10)
Method: A surface plasmon resonance (SPR) experiment was progressed using a biosensor chip to check affinity values for acetylcholine receptors of S6_1 (SEQ ID NO: 23, WTWKGKGTLNR), i.e., discovered peptides and Synake, i.e., a positive control group (Biacore 3000, Biacore AB, Uppsala, Sweden). […] A binding ability comparing experiment was carried out under observation conditions of a running buffer of 20 mM Tris (pH 7.4), a speed of 30 ? /min, a concentration of 10 to 50 μM (Synake), and a concentration of 0.1 to 10 μM (peptides S6_1). Respective results of the binding ability comparing experiment are shown in FIG. 7 (Synake) and FIG. 8 (peptides S6_1).
A surface plasmon resonance (SPR) experiment was progressed using a biosensor chip to check affinity values for acetylcholine receptors of optimized S6_1_C9 peptides (SEQ ID NO: 28, WKGKGTLNR) prepared in Example 6 (Biacore 3000, Biacore AB, Uppsala, Sweden).
An experiment of measuring affinity values of the peptides was carried out under observation conditions of a running buffer of 20 mM Tris (pH 7.4), a speed of 30 ? /min, and a concentration of 0.1 to 0.5 μM (peptides S6_1_C9).

[1] = target: acetylcholine receptor (AchR) alpha 1; assay: SPR (Biacore 3000), AchR coupled to chip, peptide 0.1 to 0.5 uM; reference Synake
Sequence of acetylcholine receptor (AchR) alpha 1 (P02708 whole entry): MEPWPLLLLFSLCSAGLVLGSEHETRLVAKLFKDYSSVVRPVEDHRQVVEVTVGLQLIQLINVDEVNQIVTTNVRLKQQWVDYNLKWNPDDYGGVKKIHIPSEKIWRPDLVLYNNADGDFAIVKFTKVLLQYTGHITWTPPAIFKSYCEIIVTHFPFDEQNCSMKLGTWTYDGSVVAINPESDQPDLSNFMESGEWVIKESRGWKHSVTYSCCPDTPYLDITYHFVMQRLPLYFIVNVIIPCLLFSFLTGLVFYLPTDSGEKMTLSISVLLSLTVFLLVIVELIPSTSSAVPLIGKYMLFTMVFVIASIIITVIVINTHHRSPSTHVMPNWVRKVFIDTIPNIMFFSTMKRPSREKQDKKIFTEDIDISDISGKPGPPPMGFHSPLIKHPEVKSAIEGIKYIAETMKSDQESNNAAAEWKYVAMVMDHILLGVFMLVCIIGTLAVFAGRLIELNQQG

Sequence of acetylcholine receptor (P02708 21-457): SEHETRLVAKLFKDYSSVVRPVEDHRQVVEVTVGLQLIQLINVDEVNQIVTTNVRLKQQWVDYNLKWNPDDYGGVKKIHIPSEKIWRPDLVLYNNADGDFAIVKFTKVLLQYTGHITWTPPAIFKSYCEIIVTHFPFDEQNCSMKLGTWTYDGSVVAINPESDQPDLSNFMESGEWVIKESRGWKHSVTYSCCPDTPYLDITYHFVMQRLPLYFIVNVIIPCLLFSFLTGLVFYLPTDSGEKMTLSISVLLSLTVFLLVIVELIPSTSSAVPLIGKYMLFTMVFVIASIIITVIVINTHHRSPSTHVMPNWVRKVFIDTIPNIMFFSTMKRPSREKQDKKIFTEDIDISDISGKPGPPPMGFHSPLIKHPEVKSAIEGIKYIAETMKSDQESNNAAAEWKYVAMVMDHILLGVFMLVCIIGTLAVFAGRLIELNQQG

Molecule | binding ability for acetylcholine receptor relative to Synake (acetylcholine receptor) | binding abilities, fold higher than Synake [1] [times]
WKGKGTLNR (Ach-R) [S6_1_C9] | about 100 times | –
WKGKGTLNR [S6_1_C9] | – | 100
